# Results from US20220145298.
# Tests used:
# [1] = tested on: TnsA(wt)BC + TniQ-Cascade transposition system (Aeromonas salmonicida); experiment: cell_activity; details: wild-type TnsA; native array and native target; no detectable transposition
# [2] = tested on: TnsA(A125D)BC + TniQ-Cascade transposition system (Aeromonas salmonicida); experiment: cell_activity; details: native array, native A.s. target on F plasmid; transposition in E. coli, mate-out; TACC PAM
sequence,measurement,setting,value
AGGACUGGAAGAAAUCAUCCAAGUUGGGGACU / TCAGGACCGGAAGGTAGCAGCCAAGGCGGGGGACTCGAGTGCCGGGATGTGGCTGATGGGGCCACCAC / GTGGTGGCCCCATCAGCCACATCCCGGCACTCGAGTCCCCCGCCTTGGCTGCTACCTTCCGGTCCTGA [ffs wild-type guide (10 mismatches) ; ffs target],activity,[1],0%
same,activity,[2],0.0188%
